Here are results for 15 molecules from PMC12901311, “HEXIM1 inter-monomer autoinhibition governs 7SK RNA binding specificity and P-TEFb inactivation” (Nature Communications, 2024).

“And” between values parts separate entries of the source, which are not always exact repeats. Equal values may be shown once.

B4: Monomeric Hexim1 BR-L-AR (aa 142-253) (domain or fragment, human)
chain: GGQQQRQLGKKKHRRRPSKKKRHWKPYYKLTWEEKKKFDEKQSLRASRIRAEMFAKGQPVAPYNTTQFLMDDHDQEEPDLKTGLYSKRAAAKSDDTSDDDFMEEGGEEDGGSD
notes: non-native glycine that remains at the N-terminus after TEV protease cleavage; Hexim1, human, residues 142-253: Basic Region, linker with PYNT motif, Acidic Region; 15N-labelled as the reporter in the PRE NMR experiments; unlabelled in NativePAGE and mass photometry; also called Hexim1 central region construct; not shown: His6, N-terminal, cleaved; MBP, N-terminal, cleaved

Series [1] deals with T1, Hexim1 full-length (human, UniProt O94992 1-359). Description: ITC. The following applies: N=1.40; protein in syringe (inferred from N); ITC: 20 mM HEPES pH 7.5, 150 mM KCl, 1 mM TCEP, 295 K; NMR: 50 mM Na phosphate pH 6.2, 150 mM KCl, 0.02% NaN3, 5% D2O, 298 K; EMSA: binding buffer (20 mM HEPES …). For orientation: In EMSA bound probe runs differently from free probe, usually more slowly.

The target in a further series is T2, Hexim1-A12m (human) (UniProt O94992).
T2 sequence: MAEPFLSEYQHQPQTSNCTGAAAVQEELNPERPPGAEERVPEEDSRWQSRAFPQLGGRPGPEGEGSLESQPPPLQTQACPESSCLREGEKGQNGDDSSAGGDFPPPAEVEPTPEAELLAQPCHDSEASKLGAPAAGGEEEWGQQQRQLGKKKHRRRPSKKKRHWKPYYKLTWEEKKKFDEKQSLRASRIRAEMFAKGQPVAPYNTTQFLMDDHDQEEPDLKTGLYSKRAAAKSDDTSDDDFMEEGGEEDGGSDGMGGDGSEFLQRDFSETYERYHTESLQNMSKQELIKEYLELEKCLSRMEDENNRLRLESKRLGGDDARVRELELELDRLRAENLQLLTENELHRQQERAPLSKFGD
The experiment in a line: ITC. The conditions noted are these: ITC: 20 mM HEPES pH 7.5, 150 mM KCl, 1 mM TCEP, 295 K; NMR: 50 mM Na phosphate pH 6.2, 150 mM KCl, 0.02% NaN3, 5% D2O, 298 K; EMSA: binding buffer (20 mM HEPES …).

The next series deals with T3, Hexim1-A3m (human) (UniProt O94992).
T3 sequence: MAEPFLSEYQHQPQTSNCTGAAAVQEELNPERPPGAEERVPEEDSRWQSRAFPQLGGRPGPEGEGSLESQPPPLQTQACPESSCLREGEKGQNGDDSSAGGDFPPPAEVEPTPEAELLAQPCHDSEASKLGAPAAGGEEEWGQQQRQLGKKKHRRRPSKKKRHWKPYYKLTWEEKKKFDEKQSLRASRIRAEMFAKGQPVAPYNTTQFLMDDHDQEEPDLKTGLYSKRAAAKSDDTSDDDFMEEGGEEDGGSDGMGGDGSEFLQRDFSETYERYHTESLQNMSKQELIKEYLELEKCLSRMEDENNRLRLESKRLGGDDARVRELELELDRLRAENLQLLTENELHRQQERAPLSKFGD
Description: ITC. The following applies: N=0.34; ITC: 20 mM HEPES pH 7.5, 150 mM KCl, 1 mM TCEP, 295 K; NMR: 50 mM Na phosphate pH 6.2, 150 mM KCl, 0.02% NaN3, 5% D2O, 298 K; EMSA: binding buffer (20 mM HEPES …).

The target in series [2] is T1, Hexim1 full-length. Description: ITC; N=0.47; ITC: 20 mM HEPES pH 7.5, 150 mM KCl, 1 mM TCEP, 295 K; NMR: 50 mM Na phosphate pH 6.2, 150 mM KCl, 0.02% NaN3, 5% D2O, 298 K; EMSA: binding buffer (20 mM HEPES). The conditions noted are these: protein: recombinant; tags: MBP-His6 removed by TEV; non-native N-terminal G remains; chain copies: 2; hairpin. Background: ITC needs no label: the signal is the heat of the interaction.

Series [3] concerns the target T1, Hexim1 full-length. Description: ITC; N=0.49; ITC: 20 mM HEPES pH 7.5, 150 mM KCl, 1 mM TCEP, 295 K; NMR: 50 mM Na phosphate pH 6.2, 150 mM KCl, 0.02% NaN3, 5% D2O, 298 K; EMSA: binding buffer (20 mM HEPES). The conditions noted are these: protein: recombinant; tags: MBP-His6 removed by TEV; non-native N-terminal G remains; chain copies: 2; hairpin.
Series [4] concerns the molecule itself. The experiment in a line: mass photometry; Refeyn TwoMP; freshly purified proteins alone or mixed as complexes, drop-diluted into phosphate-buffered saline pH 7.4 to 40 nM final total protein.
Series [5] deals with the molecule itself. Description: paramagnetic relaxation enhancement (PRE) NMR; total interaction experiment: 15N-labelled and MTSL-tagged BR-L-AR alone, captures both intra- and inter-monomer contacts; 15N-1H HSQC, 290.15 K, 600 MHz; 50 mM sodium phosphate pH 6.2, 150 mM KCl.
Series [6] has as its target B4. Description: paramagnetic relaxation enhancement (PRE) NMR; inter-only experiment: 1:1 mixture of 15N-labelled untagged BR-L-AR (reporter) with 14N-labelled MTSL-tagged BR-L-AR (broadener); 15N-1H HSQC, 290.15 K, 600 MHz; 50 mM sodium phosphate pH 6.2, 150 mM KCl. The following applies: both partners purified.
For another series, the target named is Hexim1 BR-L-AR (human, UniProt O94992 142-253). The experiment in a line: NMR; ITC: 20 mM HEPES pH 7.5, 150 mM KCl, 1 mM TCEP, 295 K; NMR: 50 mM Na phosphate pH 6.2, 150 mM KCl, 0.02% NaN3, 5% D2O, 298 K; EMSA: binding buffer (20 mM HEPES). The conditions noted are these: protein: recombinant; tags: MBP-His6 removed by TEV; non-native N-terminal G; hairpin.
The next series addresses T4, Hexim1 BRARM1 (human, UniProt O94992 141-159).
T4 chain: WGQQQRQLGKKKHRRRPSK
The experiment in a line: NMR; Site2 shifted, not Site4; ITC: 20 mM HEPES pH 7.5, 150 mM KCl, 1 mM TCEP, 295 K; NMR: 50 mM Na phosphate pH 6.2, 150 mM KCl, 0.02% NaN3, 5% D2O, 298 K; EMSA: binding buffer (20 mM HEPES). The conditions noted are these: protein: recombinant; tags: GB1-His6 removed by TEV; non-native N-terminal G; hairpin.

The target of series [7] is T1, Hexim1 full-length. Description: ITC; N=0.76; ITC: 20 mM HEPES pH 7.5, 150 mM KCl, 1 mM TCEP, 295 K; NMR: 50 mM Na phosphate pH 6.2, 150 mM KCl, 0.02% NaN3, 5% D2O, 298 K; EMSA: binding buffer (20 mM HEPES). The conditions noted are these: protein: recombinant; tags: MBP-His6 removed by TEV; non-native N-terminal G remains; chain copies: 2; hairpin with U40U41 and U63 bulges.

Another series deals with Hexim1 NBLA (N-BR-L-AR) (human, UniProt O94992 1-253). The experiment in a line: ITC; N=0.81; ITC: 20 mM HEPES pH 7.5, 150 mM KCl, 1 mM TCEP, 295 K; NMR: 50 mM Na phosphate pH 6.2, 150 mM KCl, 0.02% NaN3, 5% D2O, 298 K; EMSA: binding buffer (20 mM HEPES). The following applies: protein: recombinant; hairpin with U40U41 and U63 bulges.

As to 7SK SL1-d(api), the equilibrium dissociation constant (Kd) in the series with Hexim1 full-length [1] was found to be 96 nM.

The molecule “GGAUGUGAGGGCGAUCUGGCUUCGGCCUUCCUCCCUCACCGCUCCA [7SK SL1-p]” showed a binding signal (fold tighter than wild-type Hexim1) with Hexim1-A12m (human) of 6. The molecule further yielded a dissociation constant Kd in the series with Hexim1-A3m (human) of 276 nM.

B1: 7SK SL1-dII (structured_RNA)
RNA: GGCUGUCACCUUCGGGCUAGGCGGCC
In the case of B1, the Kd with Hexim1 full-length [2] worked out at 1220 ± 129 nM.

B2: 7SK SL1-p (structured_RNA)
RNA: GGAUGUGAGGGCGAUCUGGCUUCGGCCUUCCUCCCUCACCGCUCCA
As to B2, in the series with Hexim1 full-length [3], the Kd was 2210 ± 197 nM.

B3: Full-length human Hexim1 protein (aa 1-359) (natural protein)
chain: GMAEPFLSEYQHQPQTSNCTGAAAVQEELNPERPPGAEERVPEEDSRWQSRAFPQLGGRPGPEGEGSLESQPPPLQTQACPESSCLREGEKGQNGDDSSAGGDFPPPAEVEPTPEAELLAQPCHDSEASKLGAPAAGGEEEWGQQQRQLGKKKHRRRPSKKKRHWKPYYKLTWEEKKKFDEKQSLRASRIRAEMFAKGQPVAPYNTTQFLMDDHDQEEPDLKTGLYSKRAAAKSDDTSDDDFMEEGGEEDGGSDGMGGDGSEFLQRDFSETYERYHTESLQNMSKQELIKEYLELEKCLSRMEDENNRLRLESKRLGGDDARVRELELELDRLRAENLQLLTENELHRQQERAPLSKFGD
notes: non-native glycine that remains at the N-terminus after TEV protease cleavage; Hexim1, human, aa 1-359; also called Hexim1 dimer; full-length Hexim1; not shown: His6, N-terminal, cleaved; MBP, N-terminal, cleaved
Consider B3, for which the “stoichiometry N” value in series [4] stood at 2.

With B4, in series [4], the “stoichiometry N” value is 3 and 4.

B5: Hexim1 BR-L-AR(A201C^MTSL) (domain or fragment, human)
chain: GGQQQRQLGKKKHRRRPSKKKRHWKPYYKLTWEEKKKFDEKQSLRASRIRAEMFAKGQPVCPYNTTQFLMDDHDQEEPDLKTGLYSKRAAAKSDDTSDDDFMEEGGEEDGGSD
modifications: MTSL nitroxide spin label on C201
notes: non-native glycine that remains at the N-terminus of BR-L-AR after TEV protease cleavage; Hexim1, human, residues 142-253 (BR-L-AR) with A201C; 15N-labelled; not shown: His6, N-terminal, cleaved; MBP, N-terminal, cleaved
For the molecule B5, the binding result in series [5] is on record as “binds”.

B6: Hexim1 BR-L-AR(S183C^MTSL) (domain or fragment, human)
chain: GGQQQRQLGKKKHRRRPSKKKRHWKPYYKLTWEEKKKFDEKQCLRASRIRAEMFAKGQPVAPYNTTQFLMDDHDQEEPDLKTGLYSKRAAAKSDDTSDDDFMEEGGEEDGGSD
modifications: MTSL nitroxide spin label on C183
notes: non-native glycine that remains at the N-terminus of BR-L-AR after TEV protease cleavage; Hexim1, human, residues 142-253 (BR-L-AR) with S183C; 15N-labelled; not shown: His6, N-terminal, cleaved; MBP, N-terminal, cleaved
As to B6, in [5], the binding result is given as “binds”.

B7: Hexim1 BR-L-AR(S226C^MTSL) (domain or fragment, human)
chain: GGQQQRQLGKKKHRRRPSKKKRHWKPYYKLTWEEKKKFDEKQSLRASRIRAEMFAKGQPVAPYNTTQFLMDDHDQEEPDLKTGLYCKRAAAKSDDTSDDDFMEEGGEEDGGSD
modifications: MTSL nitroxide spin label on C226
notes: non-native glycine that remains at the N-terminus of BR-L-AR after TEV protease cleavage; Hexim1, human, residues 142-253 (BR-L-AR) with S226C; not shown: His6, N-terminal, cleaved; MBP, N-terminal, cleaved
With B7, the binding result in series [5] and in [6] was “binds” throughout.

B8: Hexim1 BR-L-AR(S237C^MTSL) (domain or fragment, human)
chain: GGQQQRQLGKKKHRRRPSKKKRHWKPYYKLTWEEKKKFDEKQSLRASRIRAEMFAKGQPVAPYNTTQFLMDDHDQEEPDLKTGLYSKRAAAKSDDTCDDDFMEEGGEEDGGSD
modifications: MTSL nitroxide spin label on C237
notes: non-native glycine that remains at the N-terminus of BR-L-AR after TEV protease cleavage; Hexim1, human, residues 142-253 (BR-L-AR) with S237C; not shown: His6, N-terminal, cleaved; MBP, N-terminal, cleaved
With B8, the binding result in series [6] was “binds”.

B9: Hexim1 BR-L-AR(S233C^MTSL) (domain or fragment, human)
chain: GGQQQRQLGKKKHRRRPSKKKRHWKPYYKLTWEEKKKFDEKQSLRASRIRAEMFAKGQPVAPYNTTQFLMDDHDQEEPDLKTGLYSKRAAAKCDDTSDDDFMEEGGEEDGGSD
modifications: MTSL nitroxide spin label on C233
notes: non-native glycine that remains at the N-terminus of BR-L-AR after TEV protease cleavage; Hexim1, human, residues 142-253 (BR-L-AR) with S233C; 14N in the inter-only experiment; not shown: His6, N-terminal, cleaved; MBP, N-terminal, cleaved
Consider B9, for which, in [6], the binding result was “binds”.

B10: 7SK SL1alt (circular), loop version not stated (structured_RNA)
RNA: GGCGAUCUGGCUGCGACAUCUGUCACCCCAUUGAUCGCC
As to B10, the binding result with Hexim1 BR-L-AR was “binds”.

B11: 7SK SL1-dIIm (structured_RNA)
RNA: GGCUGCGACAUCUGUCACCUUCGGGCUAGGCGGGUGUCCCC
Consider B11, for which the binding result with Hexim1 BRARM1 is “binds”.

B12: 7SK SL1-dI (structured_RNA)
RNA: GGCCAUUGAUCGCCUUCGGGCUGAUCUGGCC
For B12, the Kd in the series with Hexim1 full-length [7] was found to be 780 ± 25 nM; with Hexim1 NBLA (N-BR-L-AR), 83 ± 28 nM.

B13: Hexim1 L-AR-CC dimeric protein (domain or fragment, human, UniProt O94992 171-359, looked up)
chain: TWEEKKKFDEKQSLRASRIRAEMFAKGQPVAPYNTTQFLMDDHDQEEPDLKTGLYSKRAAAKSDDTSDDDFMEEGGEEDGGSDGMGGDGSEFLQRDFSETYERYHTESLQNMSKQELIKEYLELEKCLSRMEDENNRLRLESKRLGGDDARVRELELELDRLRAENLQLLTENELHRQQERAPLSKFGD
notes: Hexim1, human; linker (L), Acidic Region (AR) and coiled-coil domain (CC, 254-359); source: E. coli BL21-GOLD(DE3), purified
Regarding B13, the “stoichiometry N” value in series [4] is 2.

A word on the Kd: it is a measure of binding affinity in units of concentration. The term stoichiometry N denotes a count of units in the complex or per binding partner.
